# Measured values from publication PMC7220375.
# Target: full-length t-SNARE complex (mouse His6-SNAP25B, residues 1-206 and rat Syntaxin1A, residues 1-288) (mouse | rat) (UniProt P60879)
# Sequence (P60879 whole entry, chain 1 of 2, the tested form may be a part): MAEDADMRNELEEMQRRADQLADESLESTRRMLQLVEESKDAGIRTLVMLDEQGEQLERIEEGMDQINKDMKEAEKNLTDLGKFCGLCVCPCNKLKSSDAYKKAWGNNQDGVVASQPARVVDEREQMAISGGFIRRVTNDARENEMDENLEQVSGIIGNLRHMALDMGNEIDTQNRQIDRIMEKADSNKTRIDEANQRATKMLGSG
# Sequence (chain, as listed by the source, chain 2 of 2): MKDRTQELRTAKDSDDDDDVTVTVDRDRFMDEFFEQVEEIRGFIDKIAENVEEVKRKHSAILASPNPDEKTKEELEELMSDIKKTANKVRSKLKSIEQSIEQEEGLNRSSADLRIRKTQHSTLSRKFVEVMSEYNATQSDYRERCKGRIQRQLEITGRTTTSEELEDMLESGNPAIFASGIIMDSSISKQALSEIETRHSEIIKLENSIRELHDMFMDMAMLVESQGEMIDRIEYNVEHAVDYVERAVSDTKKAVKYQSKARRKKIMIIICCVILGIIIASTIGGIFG
substance,measurement,value
"Syt1^LLQQ (rat Synaptotagmin1-His6, residues 57-421, L387Q/L394Q) (from UniProt P21707 57-421) (domain or fragment)","share of clamped vesicles that stay unfused after Ca2+ (1 mM), normal VAMP2, with 2 µM Cpx (tripartite interface of Syt1 with Cpx and SNAREs)",25%
